Results as given in the supplement of paper PMC10567573.

B1: CPN1 (parent)
chain: RGVRRTASTPTPDDKLFQKLAKVY
B2: GFOD1 (parent)
chain: SDDFCTFQMVLEGGVCCTVTLNFN

Variants of: B1
Assay: protein stability index of a GFP-peptide fusion (GPS, HEK-293T) (PSI 1-6); higher = more stable
Conditions: c terminus: a fixed tail appended
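Also: lentivirally expressed fusions sorted by FACS into six bins by GFP to DsRed ratio, PSI derived from sequencing read proportions per bin multiplied by bin number.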

Point of comparison: G2D, protein stability index 2.26. Against it:
- R4A — lower, 2.01
- R4C — higher, 3.17
- R4D — higher, 3.69
- T9K — higher, 2.57
- T9Q — lower, 1.84
- T9G — higher, 3.11
- T9F — higher, 2.3
- T9L — lower, 1.27
- T9H — higher, 2.27
- T9W — lower, 2.02
- T9R — lower, 1.3
- T9I — lower, 1.68
- T9C — higher, 2.57
- T9Y — lower, 1.52
- T9M — lower, 1.45
- T9N — lower, 1.54
- T9A — lower, 2.07
- T9P — higher, 3
- T9S — lower, 1.94
- T9V — lower, 1.97
- S8G — lower, 1.1
- S8A — lower, 2
- S8F — lower, 1.7
- S8H — lower, 1.82
- S8L — lower, 1.76
- S8Q — lower, 2.18
- S8K — higher, 2.85
- S8M — lower, 1.44
- S8I — lower, 1.57
- S8D — lower, 2.19
- S8Y — higher, 3
- S8W — higher, 3.14
- S8T — lower, 1.6
- S8N — lower, 2.1
- S8E — lower, 1.63
- A7V — higher, 2.75
- A7Y — lower, 2
- A7N — higher, 2.54
- A7M — lower, 1.62
- A7P — lower, 1.85
- A7D — lower, 2.05
- A7C — lower, 1.57
- A7F — lower, 1.25
- A7W — higher, 2.59
- A7G — higher, 2.38
- A7E — lower, 2.05
- A7R — lower, 1.71
- A7H — lower, 1.41
- A7L — lower, 1.17
- A7Q — higher, 2.37
- A7S — lower, 1.97
- A7T — lower, 2.07
- T11E — lower, 2.1
- T11A — higher, 2.29
- T11D — the same, 2.26
- T11C — lower, 1.83
- V3F — lower, 2.24
- V3Q — lower, 1.88
- V3I — higher, 2.48
- V3R — higher, 2.84
- V3S — lower, 1.93
- V3W — higher, 2.66
- V3M — lower, 1.84
- V3H — lower, 2.13
- V3L — lower, 2.24
- V3Y — higher, 2.27
- V3G — lower, 2.12
- V3C — lower, 2
- V3T — higher, 2.89
- V3K — lower, 1.62
- V3D — higher, 2.58
- V3N — lower, 2.2
- V3A — lower, 2.16
- V3P — higher, 2.35
- V3E — lower, 2.24
- R5E — higher, 2.57
- R5N — higher, 2.3
- R5M — higher, 2.51
- R5T — higher, 2.94
- R5D — higher, 2.69
- R5I — higher, 2.33
- R5Y — lower, 1.89
- R5A — higher, 3.41
- R5S — lower, 2.23
- R5G — lower, 1.7
- R5Q — lower, 2.23
- R5F — lower, 1.57
- R5P — higher, 2.79
- R5V — lower, 1.87
- R5K — lower, 1.85
- R5H — higher, 2.35
- R5W — lower, 2.2
- R5C — higher, 3.3
- R5L — lower, 2.07
- T6H — lower, 1.49
- T6E — lower, 2.12
- T6D — higher, 2.93
- T6L — lower, 1.73
- T6W — lower, 2.02
- T6N — lower, 1.56
- T6Q — lower, 2
- T6F — lower, 2.07
- T6V — higher, 2.56
- T6G — lower, 1.74
- T6P — lower, 1.23
- T6I — lower, 1.67
- T6M — lower, 2.02
- T6K — lower, 1.61
- T6R — lower, 1.99
- T6C — lower, 1.52
- T6Y — lower, 1.59
- T6S — lower, 1.97
- R1M — lower, 1.93
- R1C — lower, 1.4
- R1S — higher, 2.85
- R1H — higher, 2.58
- R1D — higher, 2.27
- R1T — lower, 1.49
- R1Q — higher, 2.42
- R1V — higher, 2.34
- R1F — lower, 1.92
- R1N — higher, 2.42
- R1W — lower, 1.02
- R1Y — higher, 2.93
- R1P — higher, 2.27
- R1A — lower, 1.4
- R1I — lower, 1.42
- R1K — lower, 1.89
- R1L — higher, 2.88
- G2V — higher, 2.84
- G2Q — lower, 1.94
- G2P — lower, 2.19
- G2L — lower, 1.24
- G2E — higher, 2.35
- G2F — lower, 1.51
- G2N — higher, 3.13
- G2M — lower, 1.79
- G2T — lower, 2.23
- G2A — higher, 2.52
- G2R — lower, 1.66
- G2S — higher, 3.13
- G2I — lower, 1.76
- G2H — lower, 1.87
- G2C — lower, 2.22
- G2Y — lower, 1.64
- G2K — higher, 2.38

Variants of: B2
Assay: as above
Conditions: c terminus: a fixed tail appended

Point of comparison: V19S, protein stability index 2.07. Against it:
- C16W — higher, 2.8
- S1M — higher, 2.15
- N22C — higher, 3.25
- F23Q — lower, 1.24
- L21I — higher, 3
- T20Y — lower, 1.97
- T18H — higher, 2.14
- T18D — higher, 3.76
- T18R — lower, 1.48
- E12G — higher, 3.33
- Q8K — higher, 3.33
- C5F — higher, 2.08
- C17A — higher, 2.49
- C17N — higher, 2.77
- C17F — higher, 3.18
- D3G — higher, 3.28
- G14W — higher, 2.93
- F7T — higher, 2.64
- G13P — higher, 2.92
